Data from patent US20120052070A1 (Novartis, published 2012).
Each block holds one binder with its values, some of them ahead of it.

Target: T1, recombinant human DKK1 (human, UniProt O94907 32-266)
T1 sequence: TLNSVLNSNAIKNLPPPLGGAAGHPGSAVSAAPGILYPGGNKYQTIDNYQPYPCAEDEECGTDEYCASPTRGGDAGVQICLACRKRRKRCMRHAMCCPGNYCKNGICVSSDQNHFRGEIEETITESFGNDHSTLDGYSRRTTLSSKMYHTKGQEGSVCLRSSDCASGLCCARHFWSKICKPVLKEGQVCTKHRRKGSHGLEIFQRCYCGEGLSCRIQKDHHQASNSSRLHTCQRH
Test: cell-based or functional assay

- EC50, reactivation of DKK1 inhibited wnt signaling: < 1000 pM
B1: anti-DKK1 FAb MOR04910 (Fab, V domains shown)
VH: QVQLVESGGGLVQPGGSLRLSCAASGFTFSSYWMSWVRQAPGKGLEWVSGISYSGSNTHYADSVKGRFTISRDNSKNTLYLQMNSLRAEDTAVYYCARMGIDLDYWGQGTLVTVSS
VL: DIALTQPASVSGSPGQSITISCTGTSSDVGGFNYVSWYQQHPGKAPKLMIHDGSNRPSGVSNRFSGSKSGNTASLTISGLQAEDEADYYCQSWDVSPITAVFGGGTKLTVLG

- apparent EC50, TCF/LEF luciferase reporter (SuperTopflash, Kremen) with 10 ng/ml rhDKK1 and Wnt3a conditioned medium: 160 pM
B2: anti-DKK1/4 antibody (antibody, V domains shown)
VH: B1 VH
VL: B1 VL
